Assay results: the supplement of paper PMC7877785
± gives the uncertainty stated by the source.

Assay: self-splicing fitness, log relative to wild type (ln ratio); higher = more splicing; Tetrahymena group I intron in knt gene, E. coli kanamycin selection, DiMSum; sequences stand for … in CUCUCU…GGAGGGAAAAGUUAUCAGGCAUGCACCUGGUAGCUAGUCUUUAAACCAAUAGAUUGCAUCGGUUUAAAAGGCAAGACCGUCAAAUUGCGGGAAAGGGGUCAACAGCCGUUCAGUACCAAGUCUCAGGGGAAACUUUGAGAUGGCCUUGCAAAGGGUAUGGUAAUAAGCUGACGGACAUGGUCCUAACCACGCAGCCAAGUCCUAAGUCAACAGAUCUUCUGUUGAUAUGGAUGCAGUUCACAGACUAAAUGUCGGUCGGGGAAGAUGUAUUCUUCUCAUAAGAUAUAGUCGGACCUCUCCUUAAUGGGAGCUAGCGGAUGAAGUGAUGCAACACUGGAGCCGCUGGGAACUAAUUUGUAUGCGAAAGUAUAUUGAUUAGUUUUGGAGUACUCGUGGUCG
Summary of the method: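 Pooled colonies went to amplicon sequencing on an Illumina HiSeq 2500 after six replicate transformations. The plates were LB agar with 100 μg/mL carbenicillin, 50 μM IPTG and 0.2% rhamnose, with or without 25 μg/mL kanamycin, incubated overnight at 37°C or 30°C. The E. coli BL21(DE3) library had all eight P1ex-region intron nucleotides randomised, the intron placed in the knt kanamycin-resistance gene on pET-22b(+). DiMSum fitness is the error-weighted combination of replicate fold changes, kanamycin against none, normalised to wild type.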

| Sequence | self-splicing fitness (ln) (30 °C) | self-splicing fitness (ln) (37 °C) |
| --- | --- | --- |
| AAUGAGCAAUAUUACGGAAU | -4.25 ± 0.37 | -2.34 ± 0.32 |
| ACCUAGCAAUAUUACGGGUG | -1.47 ± 0.071 | -1.1 ± 0.087 |
| CAUCAGCAAUAUUACGAAUA | -1.48 ± 0.23 | -0.645 ± 0.17 |
| GAGCAGCAAUAUUACGGAGG | -3.98 ± 0.21 | -2.3 ± 0.21 |
| UAAGAGCAAUAUUACGAUUG | -1.72 ± 0.11 | -0.83 ± 0.12 |
| UAACAGCAAUAUUACGAUCA | -0.292 ± 0.074 | 0.115 ± 0.07 |
| GAGCAGCAAUAUUACGGUGA | -2.25 ± 0.12 | -0.646 ± 0.13 |
| GGAAAGCAAUAUUACGAACU | -0.854 ± 0.1 | 0.214 ± 0.12 |
| AUCAAGCAAUAUUACGCUAG | -2.76 ± 0.16 | -1.03 ± 0.13 |
| AAUCAGCAAUAUUACGAGAU | -2.72 ± 0.11 | -0.708 ± 0.1 |
| UCUCAGCAAUAUUACGAUUG | -3.43 ± 0.17 | -2.07 ± 0.17 |
| AAGUAGCAAUAUUACGCUCA | -0.287 ± 0.076 | 0.5 ± 0.094 |
| GAUGAGCAAUAUUACGAUAC | -3.7 ± 0.38 | -0.654 ± 0.2 |
| AUCGAGCAAUAUUACGGGGG | -3.4 ± 0.25 | -2.67 ± 0.26 |
| GCCAAGCAAUAUUACGCUAC | -4.34 ± 0.42 | -2.22 ± 0.16 |
| GUACAGCAAUAUUACGAUAG | -3.23 ± 0.16 | -0.84 ± 0.13 |
| GGUCAGCAAUAUUACGGCCA | -2.33 ± 0.19 | -0.589 ± 0.17 |
| AAUGAGCAAUAUUACGCAUU | -3.92 ± 0.47 | -2.74 ± 0.36 |
| GACAAGCAAUAUUACGUCGC | -3.86 ± 0.25 | -2.1 ± 0.21 |

| Sequence | self-splicing fitness (ln) (30 °C) | self-splicing fitness (ln) (37 °C) |
| --- | --- | --- |
| CUUGAGCAAUAUUACGGGCA | -3.94 ± 0.35 | -1.91 ± 0.21 |
| GAGUAGCAAUAUUACGGAAG | -3.65 ± 0.23 | -2.71 ± 0.26 |
| CACCAGCAAUAUUACGCAGG | -3.09 ± 0.1 | -1.64 ± 0.1 |
| AAACAGCAAUAUUACGCCAA | -3.08 ± 0.25 | -1.44 ± 0.15 |
| CAAAAGCAAUAUUACGGUAC | -3.79 ± 0.23 | -1.24 ± 0.18 |
| AGUAAGCAAUAUUACGGAUC | -1.39 ± 0.12 | -1.31 ± 0.1 |
| GGGAAGCAAUAUUACGACUA | -0.9 ± 0.15 | 0.352 ± 0.17 |
| CCGUAGCAAUAUUACGAACG | -1.07 ± 0.12 | -0.439 ± 0.15 |
| AAACAGCAAUAUUACGGAAG | -3.7 ± 0.2 | -1.8 ± 0.17 |
| GAAUAGCAAUAUUACGAGGC | -3.58 ± 0.38 | -2.2 ± 0.3 |
| AAAGAGCAAUAUUACGAUGA | -3.01 ± 0.25 | -2.02 ± 0.19 |
| UCCAAGCAAUAUUACGUUUA | -3.15 ± 0.12 | -1.98 ± 0.11 |
| AUUUAGCAAUAUUACGCUGU | -1.33 ± 0.14 | -1.01 ± 0.16 |
| CCAGAGCAAUAUUACGUUAU | -3.68 ± 0.24 | -2.2 ± 0.2 |
| GGCGAGCAAUAUUACGACCC | -3.18 ± 0.44 | -1.25 ± 0.5 |
| GAGUAGCAAUAUUACGGUGU | -2.71 ± 0.11 | -2.35 ± 0.18 |
| UCUCAGCAAUAUUACGGAAU | -3.04 ± 0.26 | -1.85 ± 0.21 |
| GAGCAGCAAUAUUACGAUAA | -2.23 ± 0.29 | -1.76 ± 0.24 |
